# Laboratory results from US20230242658A1 (published 2023).
# Changes are numbered by the printed parent chain. Names and notes keep the numbering of the source.
# B1: PR003549 (bispecific antibody, human IgG1, kappa, L234A L235A)
# light: DIQMTQSPSTLSASVGDRVTVTCRASQSIYIWLAWYQQKPGKAPNLLIYKASSLETGVPSRFSGSGSGTEFTLTISSLQPDDFATYYCQQYYGSSRTFGQGTKVEIKRTVAAPSVFIFPPSDEQLKSGTASVVCLLNNFYPREAKVQWKVDNALQSGNSQESVTEQDSKDSTYSLSSTLTLSKADYEKHKVYACEVTHQGLSSPVTKSFNRGEC
# heavy: EVQLVESGGGLVQPGGSLRLSCAASGFTFSSYWMSWVRQAPGKGLEWVANIKQEGSEKYYVDSVKGRFTISRDNAKNSLYLQMNSLRAEDTAVYYCARDRAVAGAFDIWGQGTMVTVSSASTKGPSVFPLAPSSKSTSGGTAALGCLVKDYFPEPVTVSWNSGALTSGVHTFPAVLQSSGLYSLSSVVTVPSSSLGTQTYICNVNHKPSNTKVDKKVEPKSCDKTHTCPPCPAPEAAGGPSVFLFPPKPKDTLMISRTPEVTCVVVDVSHEDPEVKFNWYVDGVEVHNAKTKPREEQYNSTYRVVSVLTVLHQDWLNGKEYKCKVSNKALGAPIEKTISKAKGQPREPQVYTLPPSREEMTKNQVSLTCLVKGFYPSDIAVEWESNGQPENNYKTTPPVLDSDGSFFLYSKLTVDKSRWQQGNVFSCSVMHEALHNHYTQKSLSLSPGEPKSSDKTHTPPPPPRTEVQLLESGGGLVQLGGSLRLSCAASGFTFSRYAMTWVRQAPEKGLEWVSSISGSGDDTYYGDSVKGRFTISRDNSQNTVYLQMNSLRAEDTAVYFCAKEKAGTTGDYYYNVDVWGQGTTVTVSS
# notes: PD-L1x4-1BB IgG-VH: PR000265 + VH of PR001758 at heavy-chain C-terminus
# B2: PR007136 (bispecific antibody, human IgG1, kappa)
# light: B1 light
# heavy: EVQLVESGGGLVQPGGSLRLSCAASGFTFSSYWMSWVRQAPGKGLEWVANIKQEGSEKYYVDSVKGRFTISRDNAKNSLYLQMNSLRAEDTAVYYCARDRAVAGAFDIWGQGTMVTVSSASTKGPSVFPLAPSSKSTSGGTAALGCLVKDYFPEPVTVSWNSGALTSGVHTFPAVLQSSGLYSLSSVVTVPSSSLGTQTYICNVNHKPSNTKVDKKVEPKSCDKTHTCPPCPAPEAAGAPSVFLFPPKPKDTLMISRTPEVTCVVVDVSHEDPEVKFNWYVDGVEVHNAKTKPREEQYNSTYRVVSVLTVLHQDWLNGKEYKCKVSNKALPAPIEKTISKAKGQPREPQVYTLPPSREEMTKNQVSLTCLVKGFYPSDIAVEWESNGQPENNYKTTPPVLDSDGSFFLYSKLTVDKSRWQQGNVFSCSVMHEALHNHYTQKSLSLSPGGGSGGSEVQLVESGGGLVKPGGSLRLSCAASGFTFSDYYMSWFRQAPGKGLEWVSYISSSGSTQDYADSVKGRFTISRDNAKNSLYLQMNSLRAEDTAVYYCAREREPVAGTLDFDNWGQGTPVTVSS
# notes: PD-L1x4-1BB IgG-VH: PR000265 + VH of PR007289 at heavy-chain C-terminus
# B3: PR003550 (bispecific antibody, human IgG1, kappa, L234A L235A)
# light: B1 light
# heavy: EVQLVESGGGLVQPGGSLRLSCAASGFTFSSYWMSWVRQAPGKGLEWVANIKQEGSEKYYVDSVKGRFTISRDNAKNSLYLQMNSLRAEDTAVYYCARDRAVAGAFDIWGQGTMVTVSSASTKGPSVFPLAPSSKSTSGGTAALGCLVKDYFPEPVTVSWNSGALTSGVHTFPAVLQSSGLYSLSSVVTVPSSSLGTQTYICNVNHKPSNTKVDKKVEPKSCDKTHTCPPCPAPEAAGGPSVFLFPPKPKDTLMISRTPEVTCVVVDVSHEDPEVKFNWYVDGVEVHNAKTKPREEQYNSTYRVVSVLTVLHQDWLNGKEYKCKVSNKALGAPIEKTISKAKGQPREPQVYTLPPSREEMTKNQVSLTCLVKGFYPSDIAVEWESNGQPENNYKTTPPVLDSDGSFFLYSKLTVDKSRWQQGNVFSCSVMHEALHNHYTQKSLSLSPGEPKSSDKTHTPPPPPRTEVQLVESGGGVVQPGGSLRLSCAASGFTFSNYAMTWVRQAPEKGLEWVSSISGSGVSTYYADSVKGRFTISRDNSKNTLYLQMTRLTAEDTAVYFCAKEGSSETDDHYYNVDVWGQGTTVTVSS
# notes: PD-L1x4-1BB IgG-VH: PR000265 + VH of PR001760 at heavy-chain C-terminus
# B4: PR007132 (bispecific antibody, human IgG1, kappa)
# light: B1 light
# heavy: EVQLVESGGGLVQPGGSLRLSCAASGFTFSSYWMSWVRQAPGKGLEWVANIKQEGSEKYYVDSVKGRFTISRDNAKNSLYLQMNSLRAEDTAVYYCARDRAVAGAFDIWGQGTMVTVSSASTKGPSVFPLAPSSKSTSGGTAALGCLVKDYFPEPVTVSWNSGALTSGVHTFPAVLQSSGLYSLSSVVTVPSSSLGTQTYICNVNHKPSNTKVDKKVEPKSCDKTHTCPPCPAPEAAGAPSVFLFPPKPKDTLMISRTPEVTCVVVDVSHEDPEVKFNWYVDGVEVHNAKTKPREEQYNSTYRVVSVLTVLHQDWLNGKEYKCKVSNKALPAPIEKTISKAKGQPREPQVYTLPPSREEMTKNQVSLTCLVKGFYPSDIAVEWESNGQPENNYKTTPPVLDSDGSFFLYSKLTVDKSRWQQGNVFSCSVMHEALHNHYTQKSLSLSPGGGSGGSEVQLVESGGGLVKPGGSLRLSCAASGFTFSDYYMSWIRQAPGKGLEWVSYISSSGSTIYYADSVKGRFTISRDNAKNSLYLQMNSLRAEDTAVYYCARVKPVAGTWDWFDPWGQGTPVTVSS
# notes: PD-L1x4-1BB IgG-VH: PR000265 + VH of PR007286 at heavy-chain C-terminus
# B5: PR007130 (bispecific antibody, human IgG1, kappa)
# light: B1 light
# heavy: EVQLVESGGGLVQPGGSLRLSCAASGFTFSSYWMSWVRQAPGKGLEWVANIKQEGSEKYYVDSVKGRFTISRDNAKNSLYLQMNSLRAEDTAVYYCARDRAVAGAFDIWGQGTMVTVSSASTKGPSVFPLAPSSKSTSGGTAALGCLVKDYFPEPVTVSWNSGALTSGVHTFPAVLQSSGLYSLSSVVTVPSSSLGTQTYICNVNHKPSNTKVDKKVEPKSCDKTHTCPPCPAPEAAGAPSVFLFPPKPKDTLMISRTPEVTCVVVDVSHEDPEVKFNWYVDGVEVHNAKTKPREEQYNSTYRVVSVLTVLHQDWLNGKEYKCKVSNKALPAPIEKTISKAKGQPREPQVYTLPPSREEMTKNQVSLTCLVKGFYPSDIAVEWESNGQPENNYKTTPPVLDSDGSFFLYSKLTVDKSRWQQGNVFSCSVMHEALHNHYTQKSLSLSPGGGSGGSEVQLLESGGGLVQPGGSLRLSCAASGFTFSNYAMSWFRQPPETGLKWVSSIDASGGDTYYADSVKGRFTISRDNSKNTLYLQMNSLRAEDTAVYYCAKEGSHGTDDSHYDVDVWGQGTTVTVSS
# notes: PD-L1x4-1BB IgG-VH: PR000265 + VH of PR004469 at heavy-chain C-terminus
# B6: PR004268 (bispecific antibody, human IgG1, kappa, L234A L235A)
# light: B1 light
# heavy: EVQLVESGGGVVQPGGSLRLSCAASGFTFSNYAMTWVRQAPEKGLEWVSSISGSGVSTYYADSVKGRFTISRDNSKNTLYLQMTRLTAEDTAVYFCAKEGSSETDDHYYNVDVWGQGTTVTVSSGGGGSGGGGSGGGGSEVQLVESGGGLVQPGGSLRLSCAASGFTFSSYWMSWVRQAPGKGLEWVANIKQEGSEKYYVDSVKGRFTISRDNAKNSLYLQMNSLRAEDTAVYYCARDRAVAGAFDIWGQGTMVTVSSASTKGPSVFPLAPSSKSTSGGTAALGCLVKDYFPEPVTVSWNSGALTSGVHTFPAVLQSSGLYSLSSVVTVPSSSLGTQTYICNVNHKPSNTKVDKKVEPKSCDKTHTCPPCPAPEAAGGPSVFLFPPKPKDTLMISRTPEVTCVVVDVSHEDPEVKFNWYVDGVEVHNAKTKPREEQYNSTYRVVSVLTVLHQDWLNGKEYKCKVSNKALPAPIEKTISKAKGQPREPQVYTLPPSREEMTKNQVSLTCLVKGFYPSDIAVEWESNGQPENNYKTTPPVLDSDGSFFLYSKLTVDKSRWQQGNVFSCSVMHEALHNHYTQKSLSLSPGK
# notes: PD-L1x4-1BB IgG-VH: VH of PR001760 at heavy-chain N-terminus of PR000265, linker GS_15
# B7: PR007141 (bispecific antibody, human IgG1, kappa)
# light: B1 light
# heavy: B2 heavy with A477V, S507G, S510T, Q512I, P571L
# notes: PD-L1x4-1BB IgG-VH: PR000265 + VH of PR007294 at heavy-chain C-terminus
# B8: PR007133 (bispecific antibody, human IgG1, kappa)
# light: B1 light
# heavy: B2 heavy with V459E, T511I, Q512T, S517A, T523N, P556A, P571L
# notes: PD-L1x4-1BB IgG-VH: PR000265 + VH of PR007287 at heavy-chain C-terminus
# B9: PR003551 (bispecific antibody, human IgG1, kappa, L234A L235A)
# light: B1 light
# heavy: EVQLVESGGGLVQPGGSLRLSCAASGFTFSSYWMSWVRQAPGKGLEWVANIKQEGSEKYYVDSVKGRFTISRDNAKNSLYLQMNSLRAEDTAVYYCARDRAVAGAFDIWGQGTMVTVSSASTKGPSVFPLAPSSKSTSGGTAALGCLVKDYFPEPVTVSWNSGALTSGVHTFPAVLQSSGLYSLSSVVTVPSSSLGTQTYICNVNHKPSNTKVDKKVEPKSCDKTHTCPPCPAPEAAGGPSVFLFPPKPKDTLMISRTPEVTCVVVDVSHEDPEVKFNWYVDGVEVHNAKTKPREEQYNSTYRVVSVLTVLHQDWLNGKEYKCKVSNKALGAPIEKTISKAKGQPREPQVYTLPPSREEMTKNQVSLTCLVKGFYPSDIAVEWESNGQPENNYKTTPPVLDSDGSFFLYSKLTVDKSRWQQGNVFSCSVMHEALHNHYTQKSLSLSPGEPKSSDKTHTPPPPPRTEVQLLESGGGLVQPGGSLRLSCAASGFIFSNFAMTWVRQPPEKGLKWVSSINGSGFNTYYTDSVKGRFTISRDNSRNTLYLQMNRLTAEDTAVYFCAKEGSSETDDHYYNVDVWGQGTTVTVSS
# notes: PD-L1x4-1BB IgG-VH: PR000265 + VH of PR001836 at heavy-chain C-terminus
# B10: PR007135 (bispecific antibody, human IgG1, kappa)
# light: B1 light
# heavy: B2 heavy with S507G, T511I, Q512I, A551S, P556A, N565Y, P571L
# notes: PD-L1x4-1BB IgG-VH: PR000265 + VH of PR007288 at heavy-chain C-terminus
# B11: PR007139 (bispecific antibody, human IgG1, kappa)
# light: B1 light
# heavy: B2 heavy with F491I, Q512I, P556E, F563Y, P571L
# notes: PD-L1x4-1BB IgG-VH: PR000265 + VH of PR007292 at heavy-chain C-terminus
# B12: PR007137 (bispecific antibody, human IgG1, kappa)
# light: B1 light
# heavy: B2 heavy with L465V, K467Q, G470R, S510T, Q512I, P556E, N565Y
# notes: PD-L1x4-1BB IgG-VH: PR000265 + VH of PR007290 at heavy-chain C-terminus
# B13: PR004270 (bispecific antibody, human IgG1)
# chain 1: EVQLVESGGGLVQPGGSLRLSCAASGFTFSSYWMSWVRQAPGKGLEWVANIKQEGSEKYYVDSVKGRFTISRDNAKNSLYLQMNSLRAEDTAVYYCARDRAVAGAFDIWGQGTMVTVSSASTKGPSVFPLAPSSKSTSGGTAALGCLVKDYFPEPVTVSWNSGALTSGVHTFPAVLQSSGLYSLSSVVTVPSSSLGTQTYICNVNHKPSNTKVDKKVEPKSC
# chain 2: not shown
# notes: PD-L1x4-1BB Fab-HCAb symmetric structure: Fab of PR000265, VH of PR001760, human IgG1 (L234A, L235A)
# Biological target: T1, human PD-L1 on CHO-K1 cells (human, UniProt Q9NZQ7 19-290)
# T1 construct: whole, on cells; also called CHO-K1/hPDL1; CHO-K1/hPD-L1
# Experiment: FACS, CHO-K1/hPD-L1 cells
# T1 sequence (Q9NZQ7 19-290): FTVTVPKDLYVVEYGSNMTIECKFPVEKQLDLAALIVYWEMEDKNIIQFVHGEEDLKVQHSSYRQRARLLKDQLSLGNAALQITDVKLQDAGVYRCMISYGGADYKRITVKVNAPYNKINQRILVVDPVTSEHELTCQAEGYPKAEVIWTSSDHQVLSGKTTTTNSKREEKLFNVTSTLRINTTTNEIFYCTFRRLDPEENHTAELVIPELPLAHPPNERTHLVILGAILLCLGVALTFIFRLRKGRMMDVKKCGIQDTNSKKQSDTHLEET
row,binding result,Binder
1,binds,B1
2,binds,B2
3,binds,B3
4,binds,B4
5,binds,B5
6,binds,B6
7,binds,B7
8,binds,B8
9,binds,B9
10,binds,B10
11,binds,B11
12,binds,B12
13,binds,B13

# Biological target: T2, human 4-1BB on CHO-K1 cells (human, UniProt Q07011 24-255)
# T2 construct: whole, on cells; also called CHO-K1/hu 4-1BB; CHO-K1/hu4-1BB
# Experiment: FACS, CHO-K1/hu4-1BB cells
# Experimental: The binding abilities of the antibody molecules to a CHO-K1 cell strain highly expressing human 4-1BB (CHO-K1/hu4-1BB, GenScript, M00538) and a CHO-K1 cell strain highly expressing cynomolgus monkey 4-1BB (CHO-K1/cyno4-1BB, GenScript, M00569) were determined by flow cytometry FACS. Specifically, the cells were digested and resuspended in a complete medium, and the cell density was adjusted to 2×10⁶ cells/mL. Then, the cells were seeded in a 96-well V-bottom plate (Corning, #3894) at 100 μL/well (2×10⁵ cells/well) and centrifuged at 4° C. for 5 min, and the supernatant was discarded. Then, the serially diluted antibody molecules were added to the 96-well plate at 100 μL/well, and the mixtures were well mixed. The antibody molecules might serially diluted 3-fold from the highest final concentration 200 nM to obtain a total of 12 concentrations. hIgG1 iso (CrownBio, #C0001) was used as an isotype control. The cells were incubated at 4° C. for 1 h away from light. Then, the cells in each well were rinsed twice with 100 μL of pre-cooled FACS buffer (PBS buffer containing 0.5% BSA) and centrifuged at 500 g at 4° C. for 5 min, and then the supernatant was discarded. […] Then, the cells in each well were then rinsed twice with 200 μL of pre-cooled FACS buffer and centrifuged at 500 g at 4° C. for 5 min, and then the supernatant was discarded. Finally, a pre-cooled FACS buffer was added at 200 μL/well to resuspend the cells. The fluorescence signal values were read using a BD FACS CANTOII flow cytometer.
# T2 sequence (Q07011 24-255): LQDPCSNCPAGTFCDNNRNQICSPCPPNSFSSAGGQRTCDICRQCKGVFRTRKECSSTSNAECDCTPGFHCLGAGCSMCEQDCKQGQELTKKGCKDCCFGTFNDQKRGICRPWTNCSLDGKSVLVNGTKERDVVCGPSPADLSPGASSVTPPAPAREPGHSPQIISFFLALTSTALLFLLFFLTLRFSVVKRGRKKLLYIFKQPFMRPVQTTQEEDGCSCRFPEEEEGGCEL
row,binding result,Binder
1,binds,B1
2,binds,B2
3,binds,B4
4,binds,B5
5,binds,B7
6,binds,B8
7,binds,B9
8,binds,B10
9,binds,B11
10,binds,B12
